In patent publication US20230105982A1, “INSULIN-INCRETIN CONJUGATES” (Merck Sharp & Dohme Corp., priority 2021, published 2023):

Key:
[1] = biological target: human insulin receptor (pAkt assay, CHO cells overexpressing human IR) (human) (UniProt P06213); experiment: cell-based or functional assay
[2] = biological target: minipig insulin receptor (minipig); experiment: cell-based or functional assay

Insulin Receptor pAK Assay EC50 [1]: 0.51 nM | Insulin Receptor pAK Assay EC50 [2]: 0.5 nM
Substance: Insulin levemir (ligand)
